The results in this text go back to paper doi:10.1101/2022.04.02.486817.

pKd: −log10 of the molar value.

For orientation: pKd means the negative decadic logarithm of the Kd, by convention in mol/L. A low value points to a large Kd.

In assay [1] the target is GST-TGN38 (UniProt P19814). Put plainly: BLI. On the technique in general: BLI is a label-free optical method that tracks binding on a fibre tip over time.
The target in assay [2] is AP2 α-appendage (UniProt P17427). Put plainly: ITC. Background: In ITC the heat of successive injections is recorded.
In assay [3] the target is Cμ2 (UniProt P84092). Put plainly: ITC.
Cμ2, sequence (P84092 158-435): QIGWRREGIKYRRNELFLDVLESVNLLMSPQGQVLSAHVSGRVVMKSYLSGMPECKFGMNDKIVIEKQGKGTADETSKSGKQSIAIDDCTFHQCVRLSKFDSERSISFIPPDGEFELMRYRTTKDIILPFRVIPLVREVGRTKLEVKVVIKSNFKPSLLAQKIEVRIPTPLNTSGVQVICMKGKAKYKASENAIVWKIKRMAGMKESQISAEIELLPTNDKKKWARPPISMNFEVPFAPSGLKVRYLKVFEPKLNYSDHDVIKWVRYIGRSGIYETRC

AP2 α-appendage, sequence (P17427 702-938): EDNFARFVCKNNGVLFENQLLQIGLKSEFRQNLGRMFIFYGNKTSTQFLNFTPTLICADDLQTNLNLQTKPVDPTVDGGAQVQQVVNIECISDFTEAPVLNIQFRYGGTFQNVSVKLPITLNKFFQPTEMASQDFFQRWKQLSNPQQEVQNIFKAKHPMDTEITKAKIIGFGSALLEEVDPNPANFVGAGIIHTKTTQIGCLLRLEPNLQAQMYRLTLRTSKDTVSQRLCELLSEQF
AP2:β2FCHO2-N3+C, sequence (P62743 whole entry, looked up, tested part not stated): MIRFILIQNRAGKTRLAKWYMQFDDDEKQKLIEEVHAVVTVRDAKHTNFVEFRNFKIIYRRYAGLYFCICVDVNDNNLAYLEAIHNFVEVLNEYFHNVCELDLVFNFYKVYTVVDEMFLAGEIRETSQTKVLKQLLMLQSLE
AP2:β2FCHO2-N3+C, sequence (P84092 whole entry, looked up, tested part not stated): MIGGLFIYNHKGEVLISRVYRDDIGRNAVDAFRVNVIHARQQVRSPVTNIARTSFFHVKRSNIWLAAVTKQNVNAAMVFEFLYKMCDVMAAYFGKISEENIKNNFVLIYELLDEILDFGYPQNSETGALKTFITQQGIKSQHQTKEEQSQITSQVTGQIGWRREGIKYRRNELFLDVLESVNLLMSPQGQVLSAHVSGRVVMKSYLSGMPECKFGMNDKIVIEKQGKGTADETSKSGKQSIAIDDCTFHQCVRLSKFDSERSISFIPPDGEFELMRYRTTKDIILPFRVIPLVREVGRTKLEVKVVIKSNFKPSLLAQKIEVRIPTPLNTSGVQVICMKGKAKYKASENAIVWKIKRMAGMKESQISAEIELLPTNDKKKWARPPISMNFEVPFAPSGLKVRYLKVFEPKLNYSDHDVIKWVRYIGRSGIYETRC
AP2:β2FCHO2-N3+C, sequence (P18484 whole entry, looked up, tested part not stated): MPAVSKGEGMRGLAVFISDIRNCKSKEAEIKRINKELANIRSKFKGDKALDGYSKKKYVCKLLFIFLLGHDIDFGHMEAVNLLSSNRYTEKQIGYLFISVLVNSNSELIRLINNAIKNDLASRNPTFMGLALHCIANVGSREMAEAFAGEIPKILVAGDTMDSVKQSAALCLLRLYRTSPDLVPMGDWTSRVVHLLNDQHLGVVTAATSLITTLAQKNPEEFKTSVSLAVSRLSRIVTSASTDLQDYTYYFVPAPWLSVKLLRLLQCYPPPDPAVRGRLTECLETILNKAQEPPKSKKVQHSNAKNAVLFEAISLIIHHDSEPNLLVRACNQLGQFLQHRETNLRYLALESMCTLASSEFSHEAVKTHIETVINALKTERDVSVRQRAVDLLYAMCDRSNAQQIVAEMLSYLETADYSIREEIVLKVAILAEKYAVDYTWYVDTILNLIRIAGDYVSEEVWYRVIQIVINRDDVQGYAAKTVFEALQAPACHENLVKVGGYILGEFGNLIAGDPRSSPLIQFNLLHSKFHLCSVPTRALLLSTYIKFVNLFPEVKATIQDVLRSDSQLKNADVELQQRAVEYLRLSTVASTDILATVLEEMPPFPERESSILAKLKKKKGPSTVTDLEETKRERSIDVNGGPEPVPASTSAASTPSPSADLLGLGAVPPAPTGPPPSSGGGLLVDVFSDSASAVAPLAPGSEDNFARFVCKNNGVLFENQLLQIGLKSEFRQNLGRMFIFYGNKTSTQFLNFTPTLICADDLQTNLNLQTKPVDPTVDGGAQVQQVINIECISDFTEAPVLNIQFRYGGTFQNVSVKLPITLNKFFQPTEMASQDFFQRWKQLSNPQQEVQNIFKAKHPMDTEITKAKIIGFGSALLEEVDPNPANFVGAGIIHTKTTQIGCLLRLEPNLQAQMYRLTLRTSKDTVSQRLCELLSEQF
GST-TGN38, sequence (P19814 325-357): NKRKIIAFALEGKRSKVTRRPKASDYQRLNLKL

“AP2:β2FCHO2-N3+C (from UniProt P18484 1-938; P84092 1-435; P62743 1-142) (complex)”: the fold tighter binding than AP2 core in assay [1] was found to be 3 fold. For “FCHO1 C block FGtoAA (from UniProt O14526 427-448) (peptide)”, the pKd in assay [2] was below 3.30. Same read-out and setting: to “FCHO1 C block LEStoAAA (from UniProt O14526 427-448) (peptide)” belongs below 3.30. Same read-out and setting: to “FCHO1 C block PPtoGG (from UniProt O14526 427-448) (peptide)” belongs below 3.30. In assay [3], “FCHO2 N1+N2 E320A+E321A+K326A (domain or fragment)” registered a fold reduction of binding against the wild type of 5 fold.
